The results in this text go back to US20250136696A1 (HARBOUR BIOMED SHANGHAI, published 2025).

The target in assay [1] is T1, Human KIR3DL3 protein (Sino Biological, 16055-H08H) (human, UniProt Q8N743 26-322).
T1 construct: Coated on the ELISA plate
Put plainly: ELISA, coated KIR3DL3, biotinylated protein detected with StrepTactin-HRP.
Procedure: After the liquid was discarded, the plate was washed 3 times with a PBS buffer, 200 μl of PBS blocking solution containing 1% BSA was added, and the plate was incubated for 1 hour at room temperature. The blocking solution was discarded, and the plate was washed 3 times with a PBS buffer. […] The antibodies to be tested were subjected to 3-fold concentration dilution from 100 nM, with a total of 8 gradient concentrations. 100 μl of the diluted antibody was added to each well, and the plate was incubated at 4° C. overnight.

Assay [2] deals with T2, human B7-H7 on the cell surface (human, UniProt Q9UM44 23-414).
T2 construct: whole, on cells; also called hB7-H7; hu B7-H7
T2 sequence (looked up): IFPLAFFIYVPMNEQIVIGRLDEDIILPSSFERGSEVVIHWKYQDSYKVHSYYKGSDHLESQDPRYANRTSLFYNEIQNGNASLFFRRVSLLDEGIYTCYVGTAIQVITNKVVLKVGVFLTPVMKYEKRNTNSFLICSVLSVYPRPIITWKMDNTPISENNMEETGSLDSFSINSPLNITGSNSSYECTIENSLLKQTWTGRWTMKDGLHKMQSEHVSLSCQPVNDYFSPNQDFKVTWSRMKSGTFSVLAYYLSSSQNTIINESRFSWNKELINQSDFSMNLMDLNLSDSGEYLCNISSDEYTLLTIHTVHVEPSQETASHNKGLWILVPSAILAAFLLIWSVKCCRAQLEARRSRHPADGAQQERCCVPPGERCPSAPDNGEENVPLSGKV
Put plainly: flow cytometry, LS180 cells. On the procedure:
(§1) This example was intended to study the in vitro activity of H2L2 monoclonal antibodies against human B7-H7 in binding to human/cynomolgus monkey B7-H7. Since homologous molecules of B7-H7 were not present in mice, the detection was not performed. […] The cells were adjusted to a cell density of 1×10⁶ cells/mL, respectively. The cells were seeded in a 96-well V-bottom plate (Corning, #3894) at 100 μL/well, and the antibody to be tested at 2× final concentration with 3-fold concentration gradient dilution was then added at 100 μL/well. The cells were incubated at 4° C. for 2 hours in the dark. After the incubation, the cells were rinsed twice by adding pre-chilled PBS containing 2% BSA at 100 μl/well, and centrifuged at 500 g at 4° C. for 5 minutes, and the supernatant was discarded. […] The cells were washed twice by adding pre-chilled PBS containing 2% BSA at 100 μL/well, and centrifuged at 500 g at 4° C. for 5 minutes, and the supernatant was discarded. Finally, the cells were resuspended in pre-chilled PBS containing 2% BSA at 200 μL/well, and the fluorescence signal values were read using an ACEA Novocyte3000 flow cytometer.
(In general: In flow cytometry, cells or beads pass a laser one at a time.)

The target of assay [3] is T2, human B7-H7 on the cell surface. Put plainly: flow cytometry, HCC827 cells. As for the experimental part:
as §1

Assay [4] addresses T3, biotinylated human B7-H7 protein (Acro Biosystems, B77-H82F5) (human, UniProt Q9UM44 23-344, biotinylated).
T3 construct: Bought soluble protein; also called biotin-B7H7 protein
T3 sequence (looked up): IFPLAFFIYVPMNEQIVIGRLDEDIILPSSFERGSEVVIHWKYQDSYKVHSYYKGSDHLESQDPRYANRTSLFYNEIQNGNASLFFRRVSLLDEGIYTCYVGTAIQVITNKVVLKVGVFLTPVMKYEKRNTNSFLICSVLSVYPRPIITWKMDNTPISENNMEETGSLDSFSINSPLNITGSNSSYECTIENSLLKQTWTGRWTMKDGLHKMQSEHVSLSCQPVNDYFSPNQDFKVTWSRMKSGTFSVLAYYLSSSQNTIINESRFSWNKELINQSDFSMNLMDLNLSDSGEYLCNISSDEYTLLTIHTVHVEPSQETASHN
Put plainly: flow cytometry, blocking of biotinylated human B7-H7 binding to CHO-K1/KIR3DL3 cells. An excerpt: (§2) This example was intended to study the in vitro blocking activity of human anti-B7-H7 antibodies against the binding of human B7-H7 to its receptor KIR3DL3. A CHO-K1 cell (CHO-K1/KIR3DL3, Harbour BioMed US, Inc.) overexpressing human KIR3DL3 was used in experiments at the cellular level where human B7-H7/human KIR3DL3 binding was blocked. Briefly, the CHO-K1/KIR3DL3 cells were digested and resuspended in PBS containing 2% BSA. The cells were adjusted to a cell density of 1×10⁶ cells/mL. […] The cells were incubated at 4° C. for 1 hour in the dark. […] The cells were rinsed twice by adding pre-chilled PBS containing 2% BSA at 100 μL/well, and were centrifuged at 500 g at 4° C. for 5 minutes, and the supernatant was discarded. A fluorescent secondary antibody (PE Streptavidin, BD, Cat #: 554061, 1:200) was added at 100 μL/well, and the cells were incubated at 4° C. for 30 minutes in the dark. The cells were washed twice by adding pre-chilled PBS at 200 µL/well, and centrifuged at 500 g at 4° C. for 5 minutes, and the supernatant was discarded. Finally, the cells were resuspended in pre-chilled PBS at 200 μL/well, and the fluorescence signal values were read using an ACEA Novocyte3000 flow cytometer. IC50 was calculated.

Assay [5] concerns the target T3, biotinylated human B7-H7 protein (Acro …). As to the kind of experiment: flow cytometry, blocking of biotinylated human B7-H7 binding to HEK-293/CD28H cells. As for the experimental part:
as §2, with “CD28H. […]” for “KIR3DL3. A CHO-K1 cell (CHO-K1/KIR3DL3, Harbour BioMed US, Inc.) overexpressing human KIR3DL3 was used in experiments at the cellular level where human B7-H7/human KIR3DL3 binding was blocked. Briefly, the CHO-K1/KIR3DL3 cells were digested and resuspended in PBS containing 2% BSA.”, “μL/well,” for “µL/well,”

For assay [6] the target is unchanged. Put plainly: BLI epitope competition on SA-captured biotinylated B7-H7; competitor (first antibody) PR003249. As for the experimental part: (§3) Epitope competition experiments were performed on the anti-B7-H7 antibodies using the ForteBio Octet Red96e platform with the same experimental buffer as described above. […] After being equilibrated in a buffer for 120 s, the sensors were immersed in various antibodies diluted to 100 nM for 240 s, and the final signal of the antibody binding to B7-H7 was recorded as the 100% signal for that antibody. Second step, epitope competition experiment: B7-H7 was captured using SA sensors at a capture height of 0.25 nm. The sensors were immersed in a first antibody (concentration: 100 nM) for 240 s, then the SA sensors were immersed in a mixture of the first antibody and a second antibody (final concentration of both antibodies: 100 nM) for 240 s, and the difference in signals before and after immersing the sensors in the mixture of the two antibodies was recorded as the signal for that antibody as the second antibody. The inhibition rate was calculated by the following equation, […]

Assay [7] addresses T4, human B7-H7 recombinant protein (human, UniProt Q9UM44 23-344).
T4 construct: also called human B7-H7 protein
T4 sequence (looked up): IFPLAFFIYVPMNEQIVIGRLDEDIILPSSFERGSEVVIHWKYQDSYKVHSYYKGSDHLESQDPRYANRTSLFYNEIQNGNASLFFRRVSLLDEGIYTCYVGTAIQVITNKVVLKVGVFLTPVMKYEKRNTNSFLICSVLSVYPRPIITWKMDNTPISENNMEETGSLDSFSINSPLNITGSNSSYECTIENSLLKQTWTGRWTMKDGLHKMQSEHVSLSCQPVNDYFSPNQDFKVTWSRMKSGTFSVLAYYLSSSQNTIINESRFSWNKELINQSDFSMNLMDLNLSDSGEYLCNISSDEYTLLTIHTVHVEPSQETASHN
As to the kind of experiment: BLI (Octet), antibody captured on AHC sensor, human B7-H7 in solution, 1:1 global fit. On the procedure: The binding kinetics between antigen and antibody was analyzed using an Octet Red 96e (Fortebio) molecular interaction analyzer by biolayer interferometry (BLI) technology.
For determining the affinity of antibodies for antigens, the rotary speed of the sensor was set at 1000 rpm. AHC sensors (Fortebio, #18-5060) placed in one column were first equilibrated in a test buffer for 10 minutes, and then used to capture the anti-B7-H7 antibodies at a capture height of 0.7 nm; and after being equilibrated in the buffer for 120 s, the AHC sensors bound to human B7-H7 (concentrations: 50-3.125 nM and 0 nM) with 2-fold gradient dilution for 180 s and dissociated for 300 s. The AHC sensors were finally regenerated by immersing in a 10 mM glycine-hydrochloric acid solution with pH 1.5 to elute the protein bound to the sensors.
For data analysis using Octet Data Analysis software (Fortebio, version 11.0), 0 nM well was used as the reference well, reference subtraction was performed, “1:1 Global fitting” method was selected for data fitting, the kinetic parameters of the binding of the antigen to the antigen-binding protein were calculated, and the kₒₙ (1/Ms) value, kdis (1/s) value and KD (M) value were obtained.
(In general: Biolayer interferometry detects binding as a change in optical thickness at a sensor tip.)

For assay [8], the target named is T3, biotinylated human B7-H7 protein (Acro …). As to the kind of experiment: BLI epitope competition on SA-captured biotinylated B7-H7; competitor (first antibody) PR003251. On the procedure:
as §3

T1 sequence (Q8N743 26-322 limits assumed): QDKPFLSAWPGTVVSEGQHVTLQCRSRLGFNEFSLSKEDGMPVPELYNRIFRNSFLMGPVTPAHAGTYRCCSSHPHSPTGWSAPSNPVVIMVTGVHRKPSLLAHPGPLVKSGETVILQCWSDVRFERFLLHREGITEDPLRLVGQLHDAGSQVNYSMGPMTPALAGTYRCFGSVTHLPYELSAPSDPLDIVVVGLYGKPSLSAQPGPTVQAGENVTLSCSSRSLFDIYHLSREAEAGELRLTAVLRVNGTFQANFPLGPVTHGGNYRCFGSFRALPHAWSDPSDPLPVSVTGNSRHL

B1: Biotin-B7H4 protein (Acro Biosystems, B74-H82E2) (ligand, UniProt Q7Z7D3 29-258, looked up)
chain: FGISGRHSITVTTVASAGNIGEDGILSCTFEPDIKLSDIVIQWLKEGVLGLVHEFKEGKDELSEQDEMFRGRTAVFADQVIVGNASLRLKNVQLTDAGTYKCYIITSKGKGNANLEYKTGAFSMPEVNVDYNASSETLRCEAPRWFPQPTVVWASQVDQGANFSEVSNTSFELNSENVTMKVVSVLYNVTINNTYSCMIENDIAKATGDIKVTESEIKRRSHLQLLNSKA
modifications: biotinylated
notes: also called negative control protein
B1: in assay [1], the binding result is on record as “no binding (tested: 6 µg/ml)”.

B2: PR004491 (antibody, human IgG1, kappa, L234A L235A, V domains shown)
VH: QVQLVESGGGVVQPGRSLRLSCAASGFTFSNYGMHWVRQVPGKGLEWVAVIWYDASEKDYADSVKGRFTISRDNSKNTLYLQMNSLRVEDTAVYYCAKDLISGIYYVDHWGQGTLVTVSS
VL: DIQMTQSPSSLSASVGDRVTITCRASQGISNYLAWYQQKPGKVPKLLIYAASTLQSGVPSRFSGSGSGTDFTLTISSLQPEDVATYYCQKYQSAPFTFGPGTKVDIKR
notes: Variant of PR003259, H:G55A; L:N92Q; Human IgG1 LALA
As to B2, in assay [2], the response was half-maximal at 0.066 nM (EC50) and the “Maximum MFI” value amounted to 22800 MFI.

B3: PR004492 (antibody, human IgG1, kappa, L234A L235A, V domains shown)
VH: QVQLVESGGGVVQPGRSLRLSCAASGFTFSNYGMHWVRQVPGKGLEWVAVIWYDASEKDYADSVKGRFTISRDNSKNTLYLQMNSLRVEDTAVYYCAKDLISGIYYVDHWGQGTLVTVSS
VL: DIQMTQSPSSLSASVGDRVTITCRASQGISNYLAWYQQKPGKVPKLLIYAASTLQSGVPSRFSGSGSGTDFTLTISSLQPEDVATYYCQKYNAAPFTFGPGTKVDIKR
notes: Variant of PR003259, H:G55A; L:S93A; Human IgG1 LALA
Turning to B3, in assay [2], the EC50 was determined as 0.052 nM and the “Maximum MFI” value was determined as 22900 MFI.

B4: PR004483 (antibody, human IgG1, kappa, L234A L235A, V domains shown)
VH: QVQLVESGGGVVQPGRSLRLSCAASGFTFSDYGIHWVRQAPGKGLEWVAVIWYDASDKYYADSVRGRFTISRDNSKNTLSLQMNSLRVEDTAVYYCARDRSSGAMGYFVYWGQGTLVTVSS
VL: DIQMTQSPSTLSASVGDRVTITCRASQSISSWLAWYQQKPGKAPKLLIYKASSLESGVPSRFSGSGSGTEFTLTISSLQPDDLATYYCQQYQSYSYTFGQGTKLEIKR
notes: Variant of PR003249, H:G55A; L:N92Q; Human IgG1 LALA
For the molecule B4, in assay [2], it took 0.044 nM to reach a half-maximal effect (EC50) and the “Maximum MFI” value stood at 25100 MFI.

B5: PR004484 (antibody, human IgG1, kappa, L234A L235A, V domains shown)
VH: QVQLVESGGGVVQPGRSLRLSCAASGFTFSDYGIHWVRQAPGKGLEWVAVIWYDASDKYYADSVRGRFTISRDNSKNTLSLQMNSLRVEDTAVYYCARDRSSGAMGYFVYWGQGTLVTVSS
VL: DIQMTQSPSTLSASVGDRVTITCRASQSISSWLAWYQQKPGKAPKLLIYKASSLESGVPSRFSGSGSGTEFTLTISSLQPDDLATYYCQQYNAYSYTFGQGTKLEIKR
notes: Variant of PR003249, H:G55A; L:S93A; Human IgG1 LALA
Regarding B5, in assay [2], the concentration for a half-maximal effect (EC50) turned out to be 0.04 nM and the “Maximum MFI” value was found to be 24600 MFI.

B6: PR003181 (antibody, human IgG4 S228P, kappa)
heavy: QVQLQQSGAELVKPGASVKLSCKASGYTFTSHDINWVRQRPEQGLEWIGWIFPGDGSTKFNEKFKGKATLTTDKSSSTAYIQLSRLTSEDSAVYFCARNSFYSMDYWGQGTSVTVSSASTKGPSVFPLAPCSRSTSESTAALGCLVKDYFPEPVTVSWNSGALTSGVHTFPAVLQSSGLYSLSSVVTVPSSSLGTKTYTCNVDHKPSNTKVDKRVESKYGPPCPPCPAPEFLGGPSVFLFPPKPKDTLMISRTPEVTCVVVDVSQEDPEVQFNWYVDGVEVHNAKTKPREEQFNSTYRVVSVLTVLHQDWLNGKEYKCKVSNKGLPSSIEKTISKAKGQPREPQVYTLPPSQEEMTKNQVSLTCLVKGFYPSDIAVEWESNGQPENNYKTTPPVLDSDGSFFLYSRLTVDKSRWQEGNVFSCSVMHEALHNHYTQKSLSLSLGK
light: DIVMSQSPSSLAVSAGEKVTMSCKSSQSLLNSRTRKNQLAWYQQKPGQSPKLLIYWASTRESGVPDRFTGSGSGTDFTLTISSVQAEDLAVYYCKQSYNLRTFGGGTKLEIKRTVAAPSVFIFPPSDEQLKSGTASVVCLLNNFYPREAKVQWKVDNALQSGNSQESVTEQDSKDSTYSLSSTLTLSKADYEKHKVYACEVTHQGLSSPVTKSFNRGEC
notes: also called Control antibody 1; positive control
Take B6: in assay [3], a half-maximal effect (EC50) was put at 2.55 nM and the “Maximum MFI” value amounted to 25100 MFI. In addition, in assay [4], the IC50 is 10.4 nM and the “Maximum inhibition rate (%)” value turned out to be 96.7%. The molecule further came in with a concentration for half-maximal inhibition (IC50) in assay [5] of 71.7 nM. In addition, the “Competitive inhibition rate (%)” value in assay [6] worked out at 77%. For the same molecule, in assay [7], the Kd came out at 26.3 nM, the koff was 0.00205 s⁻¹ and the on-rate (kon) worked out at 78100 M⁻¹ s⁻¹. Further, in assay [8], the “Competitive inhibition rate (%)” value is 5.32%.

As a reminder, the EC50 is the concentration giving half of the maximal effect. A high value points to weaker potency. Usually IC50 stands for the concentration at which inhibition is half-maximal. A higher IC50 goes with weaker potency in that assay. The term Kd denotes the equilibrium constant for the complex coming apart. The term koff denotes the rate constant with which the complex falls apart. As a reminder, the kon is the rate constant with which the complex forms.
